Measured values published in patent US20050118668A1 (WISCONSIN ALUMNI RESEARCH FOUNDATION, published 2005).

Molecular target: T1, T4moD (UniProt Q00459 2-103)
T1 construct: also called 11.6 kDa effector protein of the toluene-4-monooxygenase complex
T1 sequence: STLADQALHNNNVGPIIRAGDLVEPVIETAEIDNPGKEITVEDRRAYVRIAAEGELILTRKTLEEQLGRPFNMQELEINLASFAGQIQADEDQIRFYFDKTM
Assay: fluorescence anisotropy titration of 0.97 nM apo-fACP with T4moD

B1: apo-fACP (other)
chain: STIEERVKKIIGEQLGVKQEEVTNNASFVEDLGADSLDTVELVMALEEEFDTEIPDEEAEKITTVQAAIDYINGHQA
notes: mature; also called fACP (apo form, lacking phosphopantetheine)
- binding result: no binding
